Literature values as cited in US20260201008A1, “SECRETIN-DERIVED GLP1R SELECTIVE AGONISTS” (GUBRA A/S, priority 2023, published 2026).
Square brackets hold non-standard residues; d marks the D form. Ends that are not written are not given here. Aib = CC(C)(N)C(=O)O

Tests used:
SCTR = SCTR (Homo sapiens, UniProt P47872); conditions: prior art value; cited from earlier work
GLP1R = GLP1R (Homo sapiens, UniProt P43220); conditions: prior art value; cited from earlier work
GLP1R, sequence (P43220 24-463, species assumed): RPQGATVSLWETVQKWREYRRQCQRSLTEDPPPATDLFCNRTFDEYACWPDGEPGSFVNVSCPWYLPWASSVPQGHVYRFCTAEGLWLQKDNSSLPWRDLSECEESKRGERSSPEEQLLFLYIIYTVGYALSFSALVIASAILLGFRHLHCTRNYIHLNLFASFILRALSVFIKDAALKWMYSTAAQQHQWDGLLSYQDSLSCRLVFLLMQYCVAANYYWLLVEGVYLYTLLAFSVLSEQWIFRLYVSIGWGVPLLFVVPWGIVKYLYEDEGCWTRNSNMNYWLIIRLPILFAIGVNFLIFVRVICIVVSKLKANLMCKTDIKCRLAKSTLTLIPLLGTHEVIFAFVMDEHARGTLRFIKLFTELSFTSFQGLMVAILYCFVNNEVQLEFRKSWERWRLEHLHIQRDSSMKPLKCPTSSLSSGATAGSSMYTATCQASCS

SCTR, sequence (P47872 23-440, species assumed): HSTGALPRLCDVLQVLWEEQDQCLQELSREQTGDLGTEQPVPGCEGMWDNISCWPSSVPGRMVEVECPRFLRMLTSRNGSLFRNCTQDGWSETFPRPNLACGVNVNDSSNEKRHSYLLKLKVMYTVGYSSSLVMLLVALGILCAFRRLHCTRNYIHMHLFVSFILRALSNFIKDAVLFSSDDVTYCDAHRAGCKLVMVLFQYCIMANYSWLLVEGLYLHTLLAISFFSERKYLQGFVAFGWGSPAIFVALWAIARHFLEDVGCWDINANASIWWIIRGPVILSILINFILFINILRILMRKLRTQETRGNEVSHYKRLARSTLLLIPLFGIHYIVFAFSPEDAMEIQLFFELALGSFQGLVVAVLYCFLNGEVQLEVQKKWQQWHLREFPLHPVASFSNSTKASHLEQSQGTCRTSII

H-Aib-EGTFTSDLSRLLEGAALQRFIQWLV (H[Aib]EGTFTSDLSRLLEGAALQRFIQWLV-NH2; N-terminus assumed; SMILES CC[C@H](C)[C@H](NC(=O)[C@H](Cc1ccccc1)NC(=O)[C@H](CCCNC(=N)N)NC(=O)[C@H](CCC(N)=O)NC(=O)[C@H](CC(C)C)NC(=O)[C@H](C)NC(=O)[C@H](C)NC(=O)CNC(=O)[C@H](CCC(=O)O)NC(=O)[C@H](CC(C)C)NC(=O)[C@H](CC(C)C)NC(=O)[C@H](CCCNC(=N)N)NC(=O)[C@H](CO)NC(=O)[C@H](CC(C)C)NC(=O)[C@H](CC(=O)O)NC(=O)[C@H](CO)NC(=O)[C@@H](NC(=O)[C@H](Cc1ccccc1)NC(=O)[C@@H](NC(=O)CNC(=O)[C@H](CCC(=O)O)NC(=O)C(C)(C)NC(=O)[C@@H](N)Cc1c[nH]cn1)[C@@H](C)O)[C@@H](C)O)C(=O)N[C@@H](CCC(N)=O)C(=O)N[C@@H](Cc1c[nH]c2ccccc12)C(=O)N[C@@H](CC(C)C)C(=O)N[C@H](C(N)=O)C(C)C) [SEQ ID NO: 216, prior art SCTR/GLP1R co-agonist (Witteloostuijn, 2017)]
EC50 (SCTR): 1.3 nM
EC50 (GLP1R): 0.12 nM
